B1: Thy-1 on CAD cells (natural protein)
chain: QKVTSLTACLVNQNLRLDCRHENNTKDNSIQHEFSLTREKRKHVLSGTLGIPEHTYRSRVTLSNQPYIKVLTLANFTTKDEGDYFCELQVSGANPMSSNKSISVYRDKLVKC
modifications: GPI anchor

Columns and labels:
[1] = biological target: Thy-1 on the surface of primary rat cortical neurons (rat (endogenous in primary cortical neurons)) (UniProt P01830)
[2] = biological target: Thy-1 on the surface of primary rat cortical neurons (rat (endogenous in primary cortical neurons)) (UniProt P01830); remark: listed apart in the source
[3] = biological target: Thy-1 on CAD cells (mouse (endogenous in CAD cells)) (UniProt P01831)
[4] = biological target: Thy-1 on the surface of primary rat cortical neurons (rat (endogenous in primary cortical neurons)) (UniProt P01830); remark: listed apart in the source
[5] = biological target: αVβ3 integrin on the cell surface of DITNC1 astrocytes (UniProt Q8R2H2)
Sequence of UniProt Q8R2H2 (Q8R2H2 whole entry, looked up): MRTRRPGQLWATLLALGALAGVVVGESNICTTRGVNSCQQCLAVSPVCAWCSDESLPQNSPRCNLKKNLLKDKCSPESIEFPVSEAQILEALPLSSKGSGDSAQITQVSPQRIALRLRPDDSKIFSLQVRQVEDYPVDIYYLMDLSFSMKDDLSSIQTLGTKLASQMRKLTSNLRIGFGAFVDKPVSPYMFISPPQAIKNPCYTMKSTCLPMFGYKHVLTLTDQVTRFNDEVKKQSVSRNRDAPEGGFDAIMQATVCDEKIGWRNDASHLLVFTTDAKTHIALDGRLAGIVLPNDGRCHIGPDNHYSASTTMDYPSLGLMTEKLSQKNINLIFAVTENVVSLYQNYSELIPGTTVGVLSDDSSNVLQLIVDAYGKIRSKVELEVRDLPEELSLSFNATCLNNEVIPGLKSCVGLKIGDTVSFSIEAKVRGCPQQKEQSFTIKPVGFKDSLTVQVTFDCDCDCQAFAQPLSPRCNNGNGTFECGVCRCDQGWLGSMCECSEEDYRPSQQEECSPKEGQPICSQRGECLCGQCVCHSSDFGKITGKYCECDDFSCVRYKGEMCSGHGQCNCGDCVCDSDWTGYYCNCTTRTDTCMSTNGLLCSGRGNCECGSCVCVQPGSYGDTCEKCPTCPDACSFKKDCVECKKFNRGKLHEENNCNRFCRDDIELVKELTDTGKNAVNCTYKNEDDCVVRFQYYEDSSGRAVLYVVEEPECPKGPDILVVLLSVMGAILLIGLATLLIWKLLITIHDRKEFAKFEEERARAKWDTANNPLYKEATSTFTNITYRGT

Sequence of UniProt P01830 (P01830 20-130): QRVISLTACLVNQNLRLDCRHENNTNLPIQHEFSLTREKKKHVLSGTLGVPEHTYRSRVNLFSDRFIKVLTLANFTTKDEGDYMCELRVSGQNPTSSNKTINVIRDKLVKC

Molecule | length of dendrites of cortical neurons (4–5 days in culture) treated with αVβ3-Fc-containing supernatant for 72 hours, compared with non-treated neurons; prevented by PI-PLC pre-treatment [1] [% decrease] | percentage of Thy-1 positive axonal terminals collapsed in mature cortical neurons (12–15 days in vitro) treated with αVβ3-Fc-containing supernatants [2] [%] | length of processes of CAD cells on αVβ3-Fc-coated plates in comparison to controls [3] [% decrease] | percentage of axonal terminals collapsed in mature cortical neurons treated with αVβ3-Fc cross-linked with Protein A [4] [%] | percentage of differentiated CAD cells (processes ≥15 µm) seeded over a monolayer of DITNC1 astrocytes, against ∼80% on plastic [5] [%]
αVβ3-Fc fusion protein (from UniProt P06756 31-1048; P05106 27-718) | 50 | 55 | 40 | 80 | 
B1 |  |  |  |  | 35
